# Experimental data from the supplement of paper PMC9170038.
# Tested on: MS2 coat protein
# Experiment: apparent KD of MS2 coat protein, switch ON state; designed switch direction (-1 OFF switch, 1 ON switch): 1; higher = weaker reporter binding
# Settings: FMN input: 0 or 200 uM; Eterna round: R93 (includes R88 designs)
# Outline: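 Binding of SNAP-549-labelled MS2 coat protein was measured on designed RNA switches transcribed on-chip from Illumina sequencing clusters. The protein rose in twofold steps from 0.7 or 1.5 nM to 3 µM, with 0.8–1.5 h per step early on and 10–20 min per step later, in 100 mM Tris-HCl pH 7.5, 80 mM KCl, 4 mM MgCl2, without or with constant ligand. Each design's apparent KD is the median of fits to its normalised cluster binding curves.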
row,Sequence,apparent KD of MS2 coat protein [nM]
1,AUAAAACAUGAGGAUCACCCAUGUAAUAAGAACCGAGGAUAUGGAAAUAAUAAUAAUAAACCAGAAGGUGGUGAUC [Meechl MS2 SS1],110
2,AAAAAACAUGAGGAUCACCCAUGUCUUCGGACAUGAGGAUAUGUACAGACUUCGGUCUGUACAGAAGGCAUGAAAA [SS1 - 1013],256
3,"AAAAAACAUGAGGAUCACCCAUGUAUAAAAAUGGGAGGAUAUACUAAGACGAAAGUCAUAGUAGAAGGUCUAAAAA [76%, Meechl, 11]",137
4,"AAAAUAAAAAGGUAGGAUAUGGGUAAACCUACAUGAGGAUCACCCAUGUAAUAAAAAGAAAAAAACCAGAAGGACCAAAAUAAAA [72%, More Wateronthemoon, 9]",12.8
5,AAAAAAAAAUCACAGGAUAUACGAAAAAAAACAUGAGGAUCACCCAUGUGAAAAAAAAAAAAAAAGUAGAAGGGUGAUCCAAAAAA,12.6
6,AAGAAACAUGAGGAUCACCCAUGUAAACUCGAGAGAGGAUAUGGUACAUGGAAGAUCCAACUAGAAGGCUCUGGAG,38.6
7,GAAAAACAUGAGGAUCACCCAUGUAAUACAACGUCAGGAUAUUGAUUUUAUUAUGUAUUGCAAGAAGGGACAAAAG [Mat - Same State 1 - Hyphema mod - D99],95.2
8,AACAAUCUAUCUGAGGAUAUAUGUCAAAAGACAUGAGGAUCACCCAUGUAAAAACAUGAAAAAUCAUAGAAGGCAGAUAGAUUGA [SS2: 1135],67.3
9,UAUUAUUACACGAAGGAUAUCGAUAAUAGUACAUGAGGAUCACCCAUGUUCAUAUCAUUUUAGUUCGAGAAGGUCGAGGGUGAAG [JR_SS002_Sub709],23.9
10,GAGGACGUAGGAUAGGAUAUAUGAAUAAUUACAUGAGGAUCACCCAUGUCCAUUUAUAUGGGAACAUAGAAGGGUUGUGGUUAUC [SameState2 Malc#35],446
11,AAGAAACAUGAGGAUCACCCAUGUGAGAUAAACACAGGAUAUGCGAAAAGAAAUAAAGAAGCAGAAGGGUGAAGAA [Mat - Same State 1 - Tesla mod - 71],20.5
12,AAGAAACAUGAGGAUCACCCAUGUACCCAAAACGGAGGAUAUGGGAAAGAAAGAAAGAAACCAGAAGGCCGAUGAA [Amyrtaeus],25.9
13,GAAAAACAUGAGGAUCACCCAUGUAGAAAUAUGGGAGGAUAUACAAACUCGAAAGUCAAAGUAGAAGGCCUAAAAG [Garnet 29],107
14,AAAAACAUGGUGUAGGAUAUAUUAAUAGUCACAUGAGGAUCACCCAUGUUCAUAUAUAUGAACGAGUAGAAGGACGAUGAAAAAA [Mat - Same state - Malcolm Mod - D108],244
15,AAAAAACAUGAGGAUCACCCAUGUGAGAACAUGGGAGGAUAUACGAGGACGAGAGUCAGAGUAGAAGGCCUAAAAA [Garnet 66],161
16,UUAAGCCACGGGCAGGAUAUGUAUUAAAAUACAUGAGGAUCACCCAUGUGCAGGUGUAACACCUGACAGAAGGGCCAAUCGCGGC [Soondi],21.5
17,AAAAAGUGAUGGUAGGAUAUUGGAAAAGCCACAUGAGGAUCACCCAUGUCAAAAAACCUAAAAAACAAGAAGGGCUGUUAUAAAAA [Same State 2.2],18.6
18,AAAUAAAGGAUUAAGGAUAUAUCACAUGAAACAUGAGGAUCACCCAUGUAAUAAUAUAAAGGGUGAUAGAAGGUAGUUUAUAAAUA [High Roller2],295
19,GAAAAACAUGAGGAUCACCCAUGUGAUAACAUGGGAGGAUAUACAUGGACGAUAGUCAAAGUAGAAGGCCUAAAAG [Garnet 62],104
20,AAAUAAAUGACUAAGGAUAUAUCGAAGAAGACAUGAGGAUCACCCAUGUGAUAAUAAAAAGGGUGGUAGAAGGUAGUCAACAAAC [Mod 5 of Pariah 4 by Hyphema in Round 1],65.4
21,AAGAAACAUGAGGAUCACCCAUGUGAAAUAAACACAGGAUAUGCGAAAAGAAACAAAGAAGCAGAAGGGUGAAGAA [Mat - Same State 1 - Tesla mod - 57],15.1
22,AUGAAUAGCAUCGAGGAUAUCCAGUCAUGCACAUGAGGAUCACCCAUGUAAGAGAGAGUAUAAUGGGAGAAGGCGAGUACUCGAU [JR_SS002_Sub1704],82

row,Sequence,apparent KD of MS2 coat protein [nM]
1,CGGAGACAUGAGGAUCACCCAUGUGAGAAGAGGCGAGGAUAUCGAAAAAAAAAAAAAAAACGAGAAGGCGCGAGAC [salish99-SS1-011],28.5
2,CCGAUGGUAUACUAGGAUAUGGGCGCCCUUACAUGAGGAUCACCCAUGUUUACACAAAUCCGCGGCCAGAAGGAGUUCAUGGGAG [Orgere],90.3
3,AAAUAAAUGACUAAGGAUAUCUCAGAGAAAACAUGAGGAUCACCCAUGUAAUAAUAACAUGAGUGAGAGAAGGUAGUCAACAAAC [Same State 2.3 (Pariah 4 -changed stack on 9nt hairpin)],24.3
4,AAGAAACAUGAGGAUCACCCAUGUAGAAAUAUGGGAGGAUAUACGAAGACGAAAGUCAAAGUAGAAGGCCUAAAAG [Mat - Same State 1 - Eli mod - D107],21
5,AACAAUCUAUCUGAGGAUAUGUGUCAAAAGACAUGAGGAUCACCCAUGUAAAAACAUGGAAAAACACAGAAGGCAGAUAGAUUGA [SS2: 1149],62.1
6,AAAAUACAUGAGGAUCACCCAUGUCCGACAAAUCAAGGAUAUGAUAGCCUAACCAGGCUGUUAGAAGGUGAAAGAA [Laarera],637
7,GAUCCGACUAGUCAGGAUAUCAGGCGUAAGACAUGAGGAUCACCCAUGUCCUAAGAACAAGUAACUGAGAAGGGACAGGGCGACC [JR_SS002_Sub413],62.3
8,AUUCCAAAUAGUCAGGAUAUCAAAAAUAAGACAUGAGGAUCACCCAUGUACUUAGUAAAAGUAAAUGAGAAGGGACAGGGUGUAA [JR_SS002_Sub404],12.9
9,GAAAAACAUGAGGAUCACCCAUGUAGAAAUAUGGGAGGAUAUACAAACUCGAAAGACAAAGUAGAAGGCCUAAAAG [Garnet 24],38.2
10,GAAAAACAUGAGGAUCACCCAUGUAGAAAUAUGGGAGGAUAUACUAUGACGAAAGUCAAAGUAGAAGGUCUAAAAG [JL S1 M-MoE mod 6 In the Read],166
11,AAAAGACAUGAGGAUCACCCAUGUAAAAACAUAGGAGGAUAUGUCAUGAAAAAAGACUUGACAGAAGGCCUUUGUC [SS1 - 49],42
12,AAAUAACAUGAGGAUCACCCAUGUUGCAACGGUACAGGAUAUGUGGGUGAAAAUAGCAUGGCAGAAGGGUAGUGUA [SameState1 Malc#29],130
13,AAAAGACAUGAGGAUCACCCAUGUCAAGACAUAGGAGGAUAUGUCUUGAAAAAAGACUUGACAGAAGGCCUUUGUC [SS1 - 58],16.5
14,GAAAUACAUGAGGAUCACCCAUGUUAGGUGGGUCAAGGAUAUUAAGGUAAAUAAAAACCUUGAGAAGGUGAAUAAA [JR_SS001_Sub203],157
15,GAAAAACAUGAGGAUCACCCAUGUAGAAAUAUGGGAGGAUAUACAAAGACGAAAGUCAAAGUAGAAGGCCCAUAAG [Starry Same State 1.6 (mat747 round 1 mod)],13.7
16,AAAAAACAUGAGGAUCACCCAUGUCAAAAGACAUGAGGAUAUGUACAGACUUCGGUCUGUACAGAAGGCAUGAAAA [SS1 - 1011],31.6
17,AACAAUCUAUCUGAGGAUAUGUGUCGAAAGACAUGAGGAUCACCCAUGUGAAAACAUGAAAAGAUACAGAAGGCAGAUAGAUUGA [SS2: 1155],26.6
18,AAGAAACAUGAGGAUCACCCAUGUGAGAUAAACACAGGAUAUGCAAAAGAAAGAAAGAAAGCAGAAGGGUGAAGAA [Mat - Same State 1 - Tesla mod - 51],21.6
19,"AAACCACAUGAGGAUCACCCAUGUAAAAAUAUGGAAGGAUAUGCGAAAAGAAACAAAGAAGCAGAAGGUCUAAAAA [75%, Ex sub1, 20]",15.2
20,CGAAAGGAGAGAGAGGAUAUCCAAAGGAAAACAUGAGGAUCACCCAUGUAGAAGGUAGGAGAUUGGGAGAAGGCUCAAGCUAAAC [salish99-ss2-158],40.2
21,"AAACCACAUGAGGAUCACCCAUGUAAAAAUAUGGGAGGAUAUACUAGAAGAAACAAAAUAGUAGAAGGCCUAAAAA [75%, Ex sub1, 28]",33.6
